Results: patent US11306156

Legend:
[1] = biological target: D3H44 Fab heavy chain L124W_L143F_K145T_Q179E, ABD2-His6 tagged; assay: LCCA, SPR of light chain tags; L1:L2 DNA 1:3 normalized to 1:1; competing light chain m12
[2] = biological target: D3H44 Fab heavy chain L124W_L143E_K145T_Q179E, ABD2-His6 tagged; assay: as above
[3] = biological target: D3H44 Fab heavy chain L124W_L143F_K145T_Q179E, ABD2-His6 tagged; assay: LCCA, SPR of light chain tags; L1:L2 DNA 1:3 normalized to 1:1; competing light chain m15
[4] = biological target: D3H44 Fab heavy chain S186K, ABD2-His6 tagged; assay: LCCA, SPR of light chain tags; L1:L2 DNA 1:9 normalized to 1:1; competing light chain m18
[5] = biological target: D3H44 Fab heavy chain L143E_K145T_Q179D, ABD2-His6 tagged; assay: as above
[6] = biological target: D3H44 Fab heavy chain S186R, ABD2-His6 tagged; assay: LCCA, SPR of light chain tags; L1:L2 DNA 1:3 normalized to 1:1; competing light chain m18
[7] = biological target: D3H44 Fab heavy chain S186K, ABD2-His6 tagged; assay: as above
[8] = biological target: D3H44 Fab heavy chain L143E_K145T_Q179D, ABD2-His6 tagged; assay: as above
[9] = biological target: D3H44 Fab heavy chain S186R, ABD2-His6 tagged; assay: LCCA, SPR of light chain tags; L1:L2 DNA 1:3 normalized to 1:1; competing light chain m23
[10] = biological target: D3H44 Fab heavy chain S186K, ABD2-His6 tagged; assay: as above
[11] = biological target: D3H44 Fab heavy chain L143E_K145T_Q179E, ABD2-His6 tagged; assay: as above
[12] = biological target: D3H44 Fab heavy chain L143E_K145T_Q179D, ABD2-His6 tagged; assay: as above
[13] = biological target: D3H44 Fab heavy chain S186R, ABD2-His6 tagged; assay: LCCA, SPR of light chain tags; L1:L2 DNA 1:3 normalized to 1:1; competing light chain m16
[14] = biological target: D3H44 Fab heavy chain L143E_K145T_Q179E, ABD2-His6 tagged; assay: as above
[15] = biological target: D3H44 Fab heavy chain L143E_K145T_Q179E, ABD2-His6 tagged; assay: LCCA, SPR of light chain tags; L1:L2 DNA 1:9 normalized to 1:1; competing light chain m16
[16] = biological target: D3H44 Fab heavy chain L143R, ABD2-His6 tagged; assay: as above
[17] = biological target: D3H44 Fab heavy chain L143R, ABD2-His6 tagged; assay: LCCA, SPR of light chain tags; L1:L2 DNA 1:3 normalized to 1:1; competing light chain m16
[18] = biological target: D3H44 Fab heavy chain S186K, ABD2-His6 tagged; assay: LCCA, SPR of light chain tags; L1:L2 DNA 1:9 normalized to 1:1; competing light chain m19
[19] = biological target: D3H44 Fab heavy chain L143E_K145T_Q179D, ABD2-His6 tagged; assay: as above
[20] = biological target: D3H44 Fab heavy chain S186R, ABD2-His6 tagged; assay: LCCA, SPR of light chain tags; L1:L2 DNA 1:3 normalized to 1:1; competing light chain m19
[21] = biological target: D3H44 Fab heavy chain S186K, ABD2-His6 tagged; assay: as above
[22] = biological target: D3H44 Fab heavy chain L143E_K145T_Q179D, ABD2-His6 tagged; assay: as above
[23] = biological target: D3H44 Fab heavy chain S186R, ABD2-His6 tagged; assay: LCCA, SPR of light chain tags; L1:L2 DNA 1:9 normalized to 1:1; competing light chain m16
[24] = biological target: D3H44 Fab heavy chain S186K, ABD2-His6 tagged; assay: as above
[25] = biological target: D3H44 Fab heavy chain Q179R, ABD2-His6 tagged; assay: as above
[26] = biological target: D3H44 Fab heavy chain Q179K, ABD2-His6 tagged; assay: as above
[27] = biological target: D3H44 Fab heavy chain S186K, ABD2-His6 tagged; assay: LCCA, SPR of light chain tags; L1:L2 DNA 1:3 normalized to 1:1; competing light chain m16
[28] = biological target: D3H44 Fab heavy chain Q179R, ABD2-His6 tagged; assay: as above
[29] = biological target: D3H44 Fab heavy chain Q179K, ABD2-His6 tagged; assay: as above
[30] = biological target: D3H44 Fab heavy chain L124A_L143F_Q179K, ABD2-His6 tagged; assay: LCCA, SPR of light chain tags; L1:L2 DNA 1:3 normalized to 1:1; competing light chain m14
[31] = biological target: D3H44 Fab heavy chain L124W_L143F_K145T_Q179E, ABD2-His6 tagged; assay: as above
[32] = biological target: D3H44 Fab heavy chain L124A_Q179K, ABD2-His6 tagged; assay: as above
[33] = biological target: D3H44 Fab heavy chain L124W_L143E_K145T_Q179E, ABD2-His6 tagged; assay: as above
[34] = biological target: D3H44 Fab heavy chain L124A_L143F_Q179K, ABD2-His6 tagged; assay: LCCA, SPR of light chain tags; L1:L2 DNA 1:3 normalized to 1:1; competing light chain m13
[35] = biological target: D3H44 Fab heavy chain L124A_L143F_Q179K, ABD2-His6 tagged; assay: LCCA, SPR of light chain tags; L1:L2 DNA 1:9 normalized to 1:1; competing light chain m13
[36] = biological target: D3H44 Fab heavy chain L124W_L143E_K145T_Q179E, ABD2-His6 tagged; assay: as above

Substance: D3H44 light chain S131K_V133A_S176T_T178L, HA or FLAG tagged
- H2L2:H2L1 normalized median ratio [1]: 70%
- H2L2:H2L1 normalized median ratio [2]: 78%
- H2L2:H2L1 normalized median ratio [3]: 69%

Substance: D3H44 light chain Q124E_T180E, HA or FLAG tagged
- H2L2:H2L1 normalized median ratio [4]: 95%
- H1L1:H1L2 normalized median ratio [5]: 11%
- H2L2:H2L1 normalized median ratio [6]: 97%
- H2L2:H2L1 normalized median ratio [7]: 98%
- H1L1:H1L2 normalized median ratio [8]: 15%
- H2L2:H2L1 normalized median ratio [9]: 97%
- H2L2:H2L1 normalized median ratio [10]: 97%
- H1L1:H1L2 normalized median ratio [11]: 16%
- H1L1:H1L2 normalized median ratio [12]: 16%
- H2L2:H2L1 normalized median ratio [13]: 96%
- H1L1:H1L2 normalized median ratio [14]: 15%

Substance: D3H44 light chain Q124E_V133E, HA or FLAG tagged
- H1L1:H1L2 normalized median ratio [15]: 8%
- H2L2:H2L1 normalized median ratio [16]: 89%
- H1L1:H1L2 normalized median ratio [14]: 7%
- H2L2:H2L1 normalized median ratio [17]: 95%

Substance: D3H44 light chain Q124K_T178R, HA or FLAG tagged
- H2L2:H2L1 normalized median ratio [18]: 5%
- H1L1:H1L2 normalized median ratio [19]: 89%
- H1L1:H1L2 normalized median scalar value ln(r1/f1) [19]: 2.05
- H2L2:H2L1 normalized median ratio [20]: 3%
- H2L2:H2L1 normalized median ratio [21]: 2%
- H1L1:H1L2 normalized median ratio [22]: 85%
- H1L1:H1L2 normalized median scalar value ln(r1/f1) [22]: 1.74

Substance: D3H44 light chain Q124E_Q160E_T178E, HA or FLAG tagged
- H2L2:H2L1 normalized median ratio [23]: 87%
- H2L2:H2L1 normalized median ratio [24]: 90%
- H1L1:H1L2 normalized median ratio [15]: 10%
- H2L2:H2L1 normalized median ratio [25]: 86%
- H2L2:H2L1 normalized median ratio [26]: 84%
- H2L2:H2L1 normalized median ratio [13]: 94%
- H2L2:H2L1 normalized median ratio [27]: 98%
- H1L1:H1L2 normalized median ratio [14]: 9%
- H2L2:H2L1 normalized median ratio [28]: 95%
- H2L2:H2L1 normalized median ratio [29]: 95%

Substance: D3H44 light chain Q124E_V133W_S176T_T178E_T180E, HA or FLAG tagged
- H1L1:H1L2 normalized median ratio [30]: 97%
- H1L1:H1L2 normalized median scalar value ln(r1/f1) [30]: 3.61
- H2L2:H2L1 normalized median ratio [31]: 30%
- H1L1:H1L2 normalized median ratio [32]: 97%
- H1L1:H1L2 normalized median scalar value ln(r1/f1) [32]: 3.59
- H2L2:H2L1 normalized median ratio [33]: 22%
- H1L1:H1L2 normalized median ratio [34]: 95%
- H1L1:H1L2 normalized median scalar value ln(r1/f1) [34]: 2.88
- H1L1:H1L2 normalized median scalar value ln(r1/f1) [35]: 2.69
- H2L2:H2L1 normalized median ratio [36]: 8%
